One may read the Kd as the concentration at which binding is half-saturated.

The test concerns the target full-length hAPE1 (human apurinic/apyrimidinic endonuclease 1), recombinant, as immobilised for SPR (human, UniProt P27695 1-318). Description: SPR. For orientation: SPR reads the build-up and loss of mass on a sensor chip optically.

Chain of full-length hAPE1 (human apurinic/apyrimidinic endonuclease 1), recombinant, as immobilised for SPR (P27695 whole entry): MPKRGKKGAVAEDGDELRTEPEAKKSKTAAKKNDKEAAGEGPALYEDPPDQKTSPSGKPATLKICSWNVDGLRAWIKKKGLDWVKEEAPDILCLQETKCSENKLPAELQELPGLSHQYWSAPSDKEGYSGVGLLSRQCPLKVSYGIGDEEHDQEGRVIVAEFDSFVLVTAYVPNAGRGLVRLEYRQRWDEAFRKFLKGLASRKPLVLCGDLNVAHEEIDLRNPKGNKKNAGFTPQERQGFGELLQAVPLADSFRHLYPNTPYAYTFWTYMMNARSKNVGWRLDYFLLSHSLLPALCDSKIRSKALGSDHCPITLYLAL

B1: N-terminal domain of NPM1 (residues 1-117) (domain or fragment, UniProt P06748 1-117, looked up)
chain: MEDSMDMDMSPLRPQNYLFGCELKADKDYHFKVDNDENEHQLSLRTVSLGAGAKDELHIVEAEAMNYEGSPIKVTLATLKMSVQPTVSLGGFEITPPVVLRLKCGSGPVHISGQHLV
For the molecule B1, the equilibrium dissociation constant (Kd) is 668 ± 5 nM.

For the origin of these results see publication PMC3001066 (Nucleic Acids Research, 2010).
